Data: US20190112361A1 (Genentech, published 2019)

Target: T1, full-length human Tau (flTau) (human, UniProt P10636-8 1-441)
T1 construct: also called human Tau, longest isoform (441 aa)
Assay: direct ELISA, flTau coated at 1 µg/mL, hybridoma supernatant dilutions
Excerpt: Serum-free supernatants were harvested from stable hybridomas. The supernatants containing antibodies of interest were then screened by ELISA assays to characterize antibody properties and select antibodies for further development. The ELISA assays were used to determine the following: binding to full-length human Tau (flTau; SignalChem, Canada), binding to hyperphosphorylated flTau (Genentech, USA), binding to oligomeric versus monomeric preparations of flTau, and binding to certain antibody Tau epitope(s).
Coating was done overnight in phosphate-buffered saline (PBS) at 4° C. Plates were washed thoroughly with 0.05% Tween-20/PBS and then blocked with 1% bovine serum albumin (BSA) in 0.05% Tween-20/PBS for 1 hr at 37° C. The antibody contained in the hybridoma supernatant was then added at the indicated dilutions, and incubated for 2 hrs at 37° C. after which the plates were washed as described previously.
For the direct ELISAs, an AP-conjugated anti-mouse IgG secondary antibody (Jackson ImmunoResearch Laboratories, United Kingdom) was added at 1/6000 dilution in 0.05% Tween-20/PBS for 2 hr at 37° C. After the final wash, plates were incubated with p-nitrophenyl phosphate disodium hexahydrate (pNPP; Sigma-Aldrich, Switzerland) phosphatase substrate solution, and read at 405 nm using an ELISA plate reader (Tecan, Switzerland). Results are expressed as optical densities (O.D.).

T1 sequence (P10636 other isoform, or with tags, fused parts or gaps limits assumed): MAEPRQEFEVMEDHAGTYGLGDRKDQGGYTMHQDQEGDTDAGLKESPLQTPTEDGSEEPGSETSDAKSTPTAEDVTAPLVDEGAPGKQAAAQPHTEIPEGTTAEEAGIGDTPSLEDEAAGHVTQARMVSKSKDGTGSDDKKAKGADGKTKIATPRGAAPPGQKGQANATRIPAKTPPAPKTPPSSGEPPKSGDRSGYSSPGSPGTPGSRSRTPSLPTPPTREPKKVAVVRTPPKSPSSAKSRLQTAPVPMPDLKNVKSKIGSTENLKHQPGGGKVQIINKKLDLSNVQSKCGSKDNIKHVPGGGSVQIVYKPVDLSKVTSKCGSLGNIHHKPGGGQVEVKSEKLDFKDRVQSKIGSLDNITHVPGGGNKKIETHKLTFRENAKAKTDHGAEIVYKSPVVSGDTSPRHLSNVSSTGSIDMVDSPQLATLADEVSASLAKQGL

B1: 12A10-E8 (antibody, V domains shown)
VH: QIQLVQSGPELKKPGETVKISCKASGYTFTNYGMNWVKQAPGKGLKWMGWINMYTGEPTYGDDFKGRFVFSLETSVSTVYLQINNLKKEDTATFFCARGGRPDYWGQGTSVTVSS
VL: DVLMTQTPLSLPVSLGDQASISCRSSQSIVHSNGNTYLEWYLQKPGQSPKLLIYKVFNRFSGVPDRFSGSGSGTDFTLKINRVEAEDLGVYYCLQGSHVPYTFGGGTKLEIK
notes: hybridoma supernatant
B1: binds.
